Assay results from US20210220472A1 (YISSUM RESEARCH DEVELOPMENT COMPANY OF THE HEBREW …, published 2021).

T1: human TIGIT from two commercial sources (loaded on Biacore biosensor) (human, UniProt Q495A1 22-141)
T1 sequence (looked up): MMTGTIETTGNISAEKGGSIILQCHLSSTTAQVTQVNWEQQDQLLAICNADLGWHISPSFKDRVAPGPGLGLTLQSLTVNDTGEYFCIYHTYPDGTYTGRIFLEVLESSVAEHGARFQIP

T2: human TIGIT expressed on cells (YTS-TIGIT transfectants, NK cells of healthy donors, CD8+ TILs) (human, UniProt Q495A1 22-244)
T2 construct: whole, on cells; also called hTIGIT; T-cell immunoglobulin and ITIM domain
T2 sequence (looked up): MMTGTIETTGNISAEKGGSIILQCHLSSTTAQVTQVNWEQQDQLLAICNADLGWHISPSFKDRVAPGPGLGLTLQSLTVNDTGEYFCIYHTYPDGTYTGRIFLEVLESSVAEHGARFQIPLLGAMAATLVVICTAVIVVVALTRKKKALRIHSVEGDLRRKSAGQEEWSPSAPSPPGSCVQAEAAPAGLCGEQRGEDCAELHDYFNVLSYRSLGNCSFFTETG


Columns and labels:
[1] = target: human TIGIT expressed on cells (YTS-TIGIT transfectants, NK cells of healthy donors, CD8+ TILs) (human) (UniProt Q495A1); assay: FACS on YTS-TIGIT cells in the presence of 2.5 pmole PVR-Fc, bound antibody detected with anti-mouse IgG Alexa Fluor 647
[2] = target: human TIGIT expressed on cells (YTS-TIGIT transfectants, NK cells of healthy donors, CD8+ TILs) (human) (UniProt Q495A1); assay: FACS blocking assay on YTS-TIGIT cells: antibody titrated against 2.5 pmole PVR-Fc, bound PVR-Fc detected
[3] = target: human TIGIT expressed on cells (YTS-TIGIT transfectants, NK cells of healthy donors, CD8+ TILs) (human) (UniProt Q495A1); assay: FACS on 75×10^3 YTS-TIGIT cells, serial dilutions 250 nM to 65 fM
[4] = target: T1, human TIGIT from two commercial sources …; assay: SPR (Biacore), human TIGIT on the biosensor; one of two commercial sources; the other of two TIGIT sources (source not named)
Description: (§1) Surface plasmon resonance (SPR) Biosensor Biacore™ T100 (GE Healthcare) was used to determine Koff, Kon and KD between the antibodies and TIGIT.
(§2) Full binding kinetic analyses of the mAbs to human TIGIT from two sources were carried out using Biacore.

[5] = target: T1, human TIGIT from two commercial sources …; assay: SPR (Biacore), human TIGIT on the biosensor; average of two commercial sources; average of the two TIGIT sources
Description: as §1, §2

[6] = target: T1, human TIGIT from two commercial sources …; assay: SPR (Biacore), human TIGIT on the biosensor; one of two commercial sources; one of two TIGIT sources (source not named)
Description: as §1, §2

[7] = target: T2, human TIGIT expressed on cells …; assay: FACS titration on YTS-TIGIT cells, fluorescence intensity against antibody concentration
Source text: FIG. 6A. […] Background—staining of mIgG (grey filled histograms). Each panel represents a specific concentration of the antibodies as indicated. Y-axis of each panel is cell counts and X-axis is fluorescence intensity (FL1-H).

| MFI of bound antibody at 0.014 pmol [1] | MFI of bound antibody at 0.028 pmol [1] | MFI of bound antibody at 0.056 pmol [1] | MFI of bound antibody at 0.115 pmol [1] | MFI of bound antibody at 0.21 pmol [1] | MFI of bound antibody at 0.425 pmol [1] | MFI of bound antibody at 0.85 pmol [1] | MFI of bound antibody at 27 pmol [1] | MFI of bound PVR-Fc, antibody at 0.014 pmol [2] | MFI of bound PVR-Fc, antibody at 0.028 pmol [2] | MFI of bound PVR-Fc, antibody at 0.056 pmol [2] | MFI of bound PVR-Fc, antibody at 0.115 pmol [2] | MFI of bound PVR-Fc, antibody at 0.21 pmol [2] | MFI of bound PVR-Fc, antibody at 0.425 pmol [2] | lowest concentration at which cells were stained [3] [fM] | Kd [4] [nM] | Kd [5] [nM] | Kd [6] [nM] | EC50 (read off the curve) [7] [nM] | Molecule |
| --- | --- | --- | --- | --- | --- | --- | --- | --- | --- | --- | --- | --- | --- | --- | --- | --- | --- | --- | --- |
| 64 | 88 | 150 | 224 | 302 | 325 | 380 | 445 | 34 | 27.1 | 22.6 | 12.6 | 7.8 | 4.5 | > 1950 |  |  |  |  | commercial anti-TIGIT antibody MBSA43 (eBioscience Cat#12-9500-42) |
|  |  |  |  |  |  |  |  |  |  |  |  |  |  |  | 0.387 | 0.45 | 0.513 | ~0.007 | anti human TIGIT monoclonal antibody VSIG9#1 (antibody, V domains shown, Mouse monoclonal antibody from a hybridoma; It was detected with anti-mouse IgG; also called Vsig9.01; anti TIGIT-VSIG9#1) VH: QVQLQESGAELARPGASVKLSCKASGYTFTSYGISWVKQRTGQGLEWIGEIYPRSGNTYYNEKFKGKATLTADKSSSTAYMELSSLTSEDSAVYFCARKGPYYTKNEDYWGQGTILTVSS VL: DIQMTQSPASLAASVGETVTITCRASEHIYYSLAWYQQKQGKSPQLLIYNANSLEDGVPSRFSGSGSGTQYSMKINSMQPEDTATYFCKQAYDVPRTFGGGTKLEIKR |
|  |  |  |  |  |  |  |  |  |  |  |  |  |  |  | 107 | ~100 | 99.6 |  | anti human TIGIT monoclonal antibody 258-CS1#4 (antibody, V domains shown, Mouse monoclonal antibody from a hybridoma) VH: QVQLLQPGAELVKPGASVKLSCKASGYTFTIYCIHWVKQRPGQGLEWIGEISPSNGRTIYNEKFKNKATLTIDKSSTTAYMQLSSLTSEDSAVYCCAISDGYDGYYFDYWGQGTTLTVSS VL: DIQMTQSPSSLSASLGERVSLTCRASQEISGYLNWLQQKPDGTIKRLIYAASTLDSGVPKRFSGSRSGSDYSLTISRLESEDFADYYCLQYASYPRTFGGGTKLEIK |
